B1: LOXL2 (parent)
chain: FSPDGPSRFRKAYKPEQPLVRLRG

Variants of: B1
Assay: protein stability index of a GFP-peptide fusion (GPS, HEK-293T) (PSI 1-6); higher = more stable
Details: c terminus: a fixed tail appended
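Further: lentivirally expressed fusions sorted by FACS into six bins by GFP to DsRed ratio, PSI derived from sequencing read proportions per bin multiplied by bin number.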

Protein stability index: each site, then its substitutions
Y13: M 1.54, V 3.86, L 1.97, N 2.15, R 2.27, T 1.69, S 2.44, W 3.28, P 2.55, Q 2.38
V20: T 1.92, S 1.34, P 1.92, R 2.51, F 2.99, M 2.05, L 2, N 2.42, G 1.41, I 2.62, Y 2.17, E 1.74, Q 1.4, W 3.13, H 1.63, K 1.37, C 1.85, A 2.26, D 2.34
L19: H 1.45, E 2.34, K 1.65, P 1.23, V 1.41, D 2.46, W 2.04, S 2.29, N 1.22, Y 2.69, G 2.08, I 2.36, A 2.01, Q 2.56, T 1.89, M 1.82
P15: G 2.48, Q 1.7, C 3.13, R 2.88, H 1.7, T 1.41, L 3.53, I 2.07, V 2.28, D 1.68, E 1.43, S 3.74, W 1.5, N 2.52, F 1.83, Y 1.6, M 2.79, K 1.66, A 1.85
K14: H 2.06, T 3.59, R 1.54, N 2.35, I 2.86, P 1.95, G 2.32, A 2.1, C 3.06, Y 2.61, W 1.99, Q 1.76, L 2.46, S 1.48, F 1.72, E 1.83, M 2.19, V 2.71, D 1.86
Q17: R 1.57, M 2.48, C 2.65, P 2.81, T 1.5, G 2.53, N 1.4, L 2.03, V 2.21, F 2.74, I 2.18, W 1.28, S 2.25, D 2.08, H 1.46, A 2.07, E 4.03, K 1.54
L22: C 1.95, A 2.32, K 1.58, P 2.05, H 1.52, D 1.93, M 2.04, E 1.68, I 2.42, G 1.9, N 2.36, F 1.21
R21: Y 1.86, K 1.25, T 1.53, Q 1.8, G 1.67, A 1.65, D 2, V 1.65, P 1.77, C 2.37, W 1.92, M 1.59, S 1.73, E 1.99, I 2.57, F 2.12, N 1.61, H 2.25, L 1.26
P18: K 2.38, L 1.89, Y 1.65, T 1.42, V 2.06, R 1.86, E 1.82, F 1.11, A 2.07, Q 2.17, H 2.03, I 1.95, S 1.8, G 1.66, D 2.04, W 2.44, N 2.75, C 1.52, M 2
E16: P 1.72, D 2.65, A 1.96, K 2.67, N 1.64, C 2.49, V 1.85, F 1.39, H 1.63, G 1.54, S 2.72, T 2.09, I 3.39, Y 2.75, L 2.74, Q 2.92

— the supplement of paper PMC10567573
